The results in this text go back to US5580712.

The target in the assay is FLAG epitope Trypsin site N-terminally tagged 9 repeat GG biopolymer (SEQ ID NO:20).

Regarding Trypsin (type XI DPCC treated) (enzyme), the completeness of proteolytic cleavage, from relative mobility on SDS gels was found to be 100%.
